Reference: paper PMC13274938

Target: Q23-APEX-GT2 trimer (Q23-APEX-GT1-T132R-S158T) (HIV-1 (Q23.17))
Assay: cryo-EM structure

B1: CH70-Apex2.01 Fab (Fab, V domains shown)
VH: QVQLQESGPGLVKPSETLSLTCAVSGGSISDDYYWTWIRQPPGKGLEWIGYIYGDGGDTKYNPSLKNRVTISIDTSKNHFSLKVNSMTGADTAVYYCAREGRGQFWYDEDYGQFYVPGGLDSWGQGVVVTVSS
VL: DIQMTQTPLSLSVSPGEPASISCRSSQSLLHTDGYDYLDWYLQKPGQSPQLLIYGGSDRPSGVPDRFSGSGSGTDFTLKISRVEAEDVGVYYCMQHKALPRTFGQGTKVEIK
B1 gave a stoichiometry N (Fab per trimer) of 1.
